Experimental data reported in EP1706427B1 (Crucell Holland B.V., dated 2011).
Where a chain is given by its changes, count along the chain named.

T1: murine CD1d (mouse, UniProt P11609 22-336)
T1 construct: whole, on cells; also called mouse thymocytes
T1 sequence (looked up): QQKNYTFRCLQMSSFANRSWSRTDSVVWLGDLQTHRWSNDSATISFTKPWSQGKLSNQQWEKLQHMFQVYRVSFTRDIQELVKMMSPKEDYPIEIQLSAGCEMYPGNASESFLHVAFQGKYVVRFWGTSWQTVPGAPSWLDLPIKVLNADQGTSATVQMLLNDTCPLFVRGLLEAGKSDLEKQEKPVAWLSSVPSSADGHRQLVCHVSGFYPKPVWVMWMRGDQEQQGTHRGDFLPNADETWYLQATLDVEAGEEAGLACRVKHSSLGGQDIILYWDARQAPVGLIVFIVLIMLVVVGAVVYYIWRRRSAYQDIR

B1: human anti-human CD1a monoclonal antibody CR2117 (antibody, human IgG1, kappa, V domains shown)
VH: EVQLVESGGGLVHPGGSLRLSCAGSGFTFSSYAMHWVRQAPGKGLEWVSAIGTGGGTYYADSVKGRFTISRDNAKNSLYLQMNSLRAEDTAVYYCARSTPWFSFDYWGQGTLVTVSS
VL: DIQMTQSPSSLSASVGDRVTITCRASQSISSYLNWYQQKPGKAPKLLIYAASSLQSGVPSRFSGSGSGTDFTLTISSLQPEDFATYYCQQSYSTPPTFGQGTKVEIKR
notes: Human IgG1 kappa made in 293T cells; Used unlabelled and biotinylated; also called 02-117
B2: human anti-human CD1a monoclonal antibody CR2118 (antibody, human IgG1, kappa, V domains shown)
VH: B1 VH with G52S, T99A, P100W, F102L, Y106S
VL: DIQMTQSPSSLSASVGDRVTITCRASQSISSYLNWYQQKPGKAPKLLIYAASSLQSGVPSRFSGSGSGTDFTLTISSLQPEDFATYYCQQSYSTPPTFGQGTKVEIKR
notes: Human IgG1 kappa made in 293T cells; Used unlabelled and biotinylated; also called 02-118
B3: human anti-human CD1a monoclonal antibody CR2114 (antibody, human IgG1, kappa, V domains shown)
VH: EVQLVESGGGLVQPGGSLRLSCAASGFTFSSYSMNWVRQAPGKGLEWVSYISSSSSTIYYADSVKGRFTISRDNAKNSLYLQMNSLRDEDTAVYYCAKETWWQSFDYWGQGTLVTVSS
VL: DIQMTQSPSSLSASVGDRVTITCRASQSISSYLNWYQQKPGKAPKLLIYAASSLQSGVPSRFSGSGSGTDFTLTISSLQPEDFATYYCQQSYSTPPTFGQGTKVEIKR
notes: Human IgG1 kappa made in 293T cells; Used unlabelled and biotinylated; also called 02-114
B4: human anti-human CD1a monoclonal antibody CR2113 (antibody, human IgG1, kappa, V domains shown)
VH: QVQLQESGAGLLKPSETLSLTCAVYGGSFSGYYWSWIRQPPGKGLEWIGYIYYSGSTNYNPSLKSRVTISVDTSKNQFSLKLSSVTAADTAVYYCAKAPYMMYFDSWGQGTLVTVSS
VL: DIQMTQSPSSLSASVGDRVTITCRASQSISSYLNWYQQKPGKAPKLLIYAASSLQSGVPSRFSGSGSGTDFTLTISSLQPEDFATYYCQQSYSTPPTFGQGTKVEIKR
notes: Human IgG1 kappa made in 293T cells, purified over protein A and size exclusion; Used unlabelled and biotinylated; also called 02-113

How the values were obtained:
[1] = molecular target: T2, murine CD1a (mouse); assay: flow cytometry on mouse thymocytes, Kolmogorov-Smirnov D-value
T2 construct: whole, on cells; no mouse CD1a entry is known to me; also called mouse thymocytes

[2] = molecular target: T1, murine CD1d; assay: as above

Binder	D-value [1]	D-value [2]
B1	0	0
B2	0	0
B3	0	0
B4	0	0
